According to article PMC9482650, “Quantitative fragmentomics allow affinity mapping of interactomes” (Nature Communications, 2022):

T1: DLG3_3, Q92796
T1 sequence (Q92796 374-475, limits assumed, looked up): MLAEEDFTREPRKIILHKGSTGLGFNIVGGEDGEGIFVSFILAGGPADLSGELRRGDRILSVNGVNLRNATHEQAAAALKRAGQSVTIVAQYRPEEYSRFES

T2: RAPGEF6, Q8TEU7
T2 sequence (Q8TEU7 525-625, limits assumed, looked up): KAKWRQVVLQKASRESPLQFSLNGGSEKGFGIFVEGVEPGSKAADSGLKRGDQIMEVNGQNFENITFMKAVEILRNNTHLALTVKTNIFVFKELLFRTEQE

T3: GRIP1_7, Q9Y3R0
T3 sequence (Q9Y3R0 999-1096, limits assumed, looked up): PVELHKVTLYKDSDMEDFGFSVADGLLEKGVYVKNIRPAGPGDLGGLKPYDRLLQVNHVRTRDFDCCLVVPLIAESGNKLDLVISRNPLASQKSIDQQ

T4: LIN7C, Q9NUP9
T4 sequence (Q9NUP9 88-185, limits assumed, looked up): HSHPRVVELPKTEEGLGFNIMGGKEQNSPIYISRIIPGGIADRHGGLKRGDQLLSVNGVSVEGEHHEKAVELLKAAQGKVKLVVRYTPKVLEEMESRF

T5: DLG3_2, Q92796
T5 sequence (Q92796 221-321, limits assumed, looked up): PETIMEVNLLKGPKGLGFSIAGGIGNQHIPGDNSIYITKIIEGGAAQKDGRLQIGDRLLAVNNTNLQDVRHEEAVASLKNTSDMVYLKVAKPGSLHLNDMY

T6: LNX2_3, Q8N448
T6 sequence (Q8N448 463-564, limits assumed, looked up): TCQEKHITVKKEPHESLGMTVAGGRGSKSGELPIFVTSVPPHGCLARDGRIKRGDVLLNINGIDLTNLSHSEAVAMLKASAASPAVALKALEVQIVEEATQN

T7: LNX2_2, Q8N448
T7 sequence (Q8N448 334-432, limits assumed, looked up): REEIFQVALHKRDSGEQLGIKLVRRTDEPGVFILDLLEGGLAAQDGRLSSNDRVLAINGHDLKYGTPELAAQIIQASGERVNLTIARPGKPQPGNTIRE

T8: MPP7, Q5T2T1
T8 sequence (Q5T2T1 134-230, limits assumed, looked up): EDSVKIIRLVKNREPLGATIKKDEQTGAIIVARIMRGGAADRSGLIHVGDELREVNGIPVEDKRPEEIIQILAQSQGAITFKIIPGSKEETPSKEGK

T9: TX1BP3, O14907
T9 sequence (O14907 10-122, limits assumed, looked up): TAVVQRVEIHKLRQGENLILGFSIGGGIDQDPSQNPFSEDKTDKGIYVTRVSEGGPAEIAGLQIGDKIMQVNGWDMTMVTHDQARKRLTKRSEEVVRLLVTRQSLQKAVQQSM

T10: PDZD2_2, O15018
T10 sequence (O15018 329-429, limits assumed, looked up): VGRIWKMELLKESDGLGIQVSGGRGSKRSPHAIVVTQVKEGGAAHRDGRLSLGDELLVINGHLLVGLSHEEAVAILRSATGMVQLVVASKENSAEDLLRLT

T11: NHERF3_1, Q5T2W1
T11 sequence (Q5T2W1 4-100, limits assumed, looked up): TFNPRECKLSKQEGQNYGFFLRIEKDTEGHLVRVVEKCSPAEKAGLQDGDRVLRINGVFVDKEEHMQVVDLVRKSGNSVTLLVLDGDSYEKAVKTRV

T12: CARD11, Q9BXL7
T12 sequence (Q9BXL7 662-765, limits assumed, looked up): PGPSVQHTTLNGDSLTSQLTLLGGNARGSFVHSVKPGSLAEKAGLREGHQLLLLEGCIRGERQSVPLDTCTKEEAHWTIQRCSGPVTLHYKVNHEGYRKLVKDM


Key:
Experiment in all cases: holdup assay
Parameters in all cases: key: below the threshold = too weak to quantify, mostly under pKd 3.1 to 4
[1] = target: T1, DLG3_3, Q92796; conditions: plain residues with an end cap or a label only (N-terminal biotin on a linker: ttds)
[2] = target: SCRIB_3, Q14160
Sequence of SCRIB_3, Q14160 (Q14160 999-1103): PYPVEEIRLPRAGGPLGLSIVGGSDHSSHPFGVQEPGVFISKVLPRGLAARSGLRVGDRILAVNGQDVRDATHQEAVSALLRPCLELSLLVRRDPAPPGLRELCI

[3] = target: T2, RAPGEF6, Q8TEU7
[4] = target: GRIP2_5, Q9C0E4
Sequence of GRIP2_5, Q9C0E4 (Q9C0E4 544-642): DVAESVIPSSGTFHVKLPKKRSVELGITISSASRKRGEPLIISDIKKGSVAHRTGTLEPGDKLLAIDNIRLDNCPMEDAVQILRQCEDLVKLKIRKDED

[5] = target: T3, GRIP1_7, Q9Y3R0
[6] = target: T4, LIN7C, Q9NUP9
[7] = target: T5, DLG3_2, Q92796; conditions: plain residues with an end cap or a label only (N-terminal biotin on a linker: ttds)
[8] = target: T6, LNX2_3, Q8N448; conditions: plain residues with an end cap or a label only (N-terminal biotin on a linker: ttds)
[9] = target: T7, LNX2_2, Q8N448
[10] = target: TJP2_1, Q9UDY2
Sequence of TJP2_1, Q9UDY2 (Q9UDY2 24-128): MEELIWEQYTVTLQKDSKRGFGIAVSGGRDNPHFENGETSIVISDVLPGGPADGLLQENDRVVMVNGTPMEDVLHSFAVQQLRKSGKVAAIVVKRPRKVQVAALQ

[11] = target: Inadl_9, Q8NI35; conditions: plain residues with an end cap or a label only (N-terminal biotin on a linker: ttds)
Sequence of Inadl_9, Q8NI35 (Q8NI35 1530-1615): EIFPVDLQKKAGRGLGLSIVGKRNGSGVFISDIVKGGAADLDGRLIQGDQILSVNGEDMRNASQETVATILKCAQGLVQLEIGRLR

[12] = target: T8, MPP7, Q5T2T1; conditions: plain residues with an end cap or a label only (N-terminal biotin on a linker: ttds)
[13] = target: Inadl_3, Q8NI35; conditions: plain residues with an end cap or a label only (N-terminal biotin on a linker: ttds)
Sequence of Inadl_3, Q8NI35 (Q8NI35 359-469): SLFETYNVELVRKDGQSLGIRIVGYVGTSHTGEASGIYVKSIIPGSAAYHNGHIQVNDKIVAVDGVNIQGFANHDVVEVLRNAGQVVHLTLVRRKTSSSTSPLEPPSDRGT

[14] = target: T9, TX1BP3, O14907
[15] = target: FRMPD2_3, Q68DX3; conditions: plain residues with an end cap or a label only (N-terminal biotin on a linker: ttds)
Sequence of FRMPD2_3, Q68DX3 (Q68DX3 1073-1166): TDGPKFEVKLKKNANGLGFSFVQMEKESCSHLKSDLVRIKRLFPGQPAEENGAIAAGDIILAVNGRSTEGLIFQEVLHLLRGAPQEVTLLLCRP

[16] = target: TJP1_3, Q07157; conditions: plain residues with an end cap or a label only (N-terminal biotin on a linker: ttds)
Sequence of TJP1_3, Q07157 (Q07157 416-512): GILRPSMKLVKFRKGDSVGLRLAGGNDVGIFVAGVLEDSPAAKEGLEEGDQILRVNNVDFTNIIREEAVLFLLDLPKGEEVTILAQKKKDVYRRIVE

[17] = target: GIPC2, Q8TF65
Sequence of GIPC2, Q8TF65 (Q8TF65 112-203): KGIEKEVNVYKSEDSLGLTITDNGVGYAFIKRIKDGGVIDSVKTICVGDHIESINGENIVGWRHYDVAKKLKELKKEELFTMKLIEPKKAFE

[18] = target: FRMPD2_2, Q68DX3
Sequence of FRMPD2_2, Q68DX3 (Q68DX3 944-1038): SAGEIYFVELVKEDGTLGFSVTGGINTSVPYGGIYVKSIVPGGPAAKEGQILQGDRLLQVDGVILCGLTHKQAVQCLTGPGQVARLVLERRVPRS

[19] = target: DLG1_2, Q12959
Sequence of DLG1_2, Q12959 (Q12959 314-412): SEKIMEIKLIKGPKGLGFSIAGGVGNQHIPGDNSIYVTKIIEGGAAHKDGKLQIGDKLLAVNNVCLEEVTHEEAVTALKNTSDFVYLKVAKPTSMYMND

[20] = target: NHERF4_1, Q86UT5-2; conditions: plain residues with an end cap or a label only (N-terminal biotin on a linker: ttds)
Sequence of NHERF4_1, Q86UT5-2 (Q86UT5 other isoform, or with tags, fused parts or gaps): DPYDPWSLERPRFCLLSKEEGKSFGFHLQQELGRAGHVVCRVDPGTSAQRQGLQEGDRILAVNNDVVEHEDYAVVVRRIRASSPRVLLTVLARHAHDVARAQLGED

[21] = target: Inadl_6, Q8NI35
Sequence of Inadl_6, Q8NI35 (Q8NI35 1058-1167): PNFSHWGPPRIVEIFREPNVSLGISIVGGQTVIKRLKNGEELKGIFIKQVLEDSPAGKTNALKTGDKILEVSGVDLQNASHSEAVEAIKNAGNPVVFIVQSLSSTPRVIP

[22] = target: LDB3, O75112
Sequence of LDB3, O75112 (O75112 1-94): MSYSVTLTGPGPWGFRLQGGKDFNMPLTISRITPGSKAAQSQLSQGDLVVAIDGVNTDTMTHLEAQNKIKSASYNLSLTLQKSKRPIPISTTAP

[23] = target: T10, PDZD2_2, O15018
[24] = target: T11, NHERF3_1, Q5T2W1
[25] = target: T12, CARD11, Q9BXL7; conditions: plain residues with an end cap or a label only (N-terminal biotin on a linker: ttds)
[26] = plain residues with an end cap or a label only (N-terminal biotin on a linker: ttds)
[27] = plain residues with an end cap or a label only (N-terminal biotin on a linker: ado-ado)

pKd [1]	pKd [2, 26]	pKd [3, 26]	pKd [4, 26]	pKd [5, 26]	pKd [6, 26]	pKd [7]	pKd [8]	pKd [9, 26]	pKd [10, 26]	pKd [11]	pKd [12]	pKd [13]	pKd [14, 26]	pKd [15]	pKd [16]	pKd [17, 26]	pKd [18, 26]	pKd [19, 26]	pKd [20]	Binder	further results
5.34	4.85	3.44	below the threshold	3.77	5.03	5.32	below the threshold	3.77	4.45	3.39	below the threshold	below the threshold	4.75	3.57	below the threshold	below the threshold	3.6	5.78	below the threshold	SVWLRKETRV [CYSLTR2, Q9NS75]	pKd [21, 26]: below the threshold; pKd [22, 26]: below the threshold; pKd [23, 26]: 3.8; pKd [24, 26]: 4.8; pKd [25]: below the threshold
–	–	–	–	–	–	–	–	–	–	–	–	–	–	–	–	–	–	–	–	KRPEMTSSSV [MUC3B, MUC3A, Q02505;Q9H195]	pKd [3, 27]: below the threshold; pKd [6, 27]: below the threshold; pKd [9, 27]: below the threshold; pKd [14, 27]: 4.5; pKd [18, 27]: below the threshold; pKd [19, 27]: 4.06; pKd [23, 27]: 5.11; pKd [24, 27]: 3.85
–	–	–	–	–	–	–	–	–	–	–	–	–	–	–	–	–	–	–	–	KSRVAFFEEL [NF2, P35240]	pKd [2, 27]: 3.7; pKd [4, 27]: 3.54; pKd [5, 27]: 3.49; pKd [10, 27]: 3.63; pKd [17, 27]: 3.48; pKd [19, 27]: 3.5; pKd [21, 27]: 3.47; pKd [22, 27]: 3.9; pKd [23, 27]: 3.71
3.81	4.23	3.56	below the threshold	below the threshold	3.78	3.63	below the threshold	below the threshold	3.65	below the threshold	below the threshold	below the threshold	3.84	4.08	below the threshold	4.17	below the threshold	below the threshold	3.9	RSLEEEESQL [GRASP, Q7Z6J2]	pKd [21, 26]: 4.05; pKd [22, 26]: 3.68; pKd [23, 26]: 3.98; pKd [24, 26]: 5.27; pKd [25]: 3.81
